Numbering of substitutions follows the chain as printed. Names may count otherwise. “And” between values parts separate entries of the source, which are not always exact repeats. Equal entries are not always repeated.
T1: C39S version of full length murine adiponectin (C39S mAd) (murine), Q60994
T1 chain: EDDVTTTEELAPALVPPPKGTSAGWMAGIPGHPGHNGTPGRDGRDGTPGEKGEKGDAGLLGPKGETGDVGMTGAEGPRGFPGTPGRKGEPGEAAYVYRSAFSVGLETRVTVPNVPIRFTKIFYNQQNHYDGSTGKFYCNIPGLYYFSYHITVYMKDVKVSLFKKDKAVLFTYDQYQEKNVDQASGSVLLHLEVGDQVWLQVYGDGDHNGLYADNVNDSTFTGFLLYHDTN

B1: Full length human adiponectin (hAd), high molecular weight form (protein)
chain: ETTTQGPGVLLPLPKGACTGWMAGIPGHPGHNGAPGRDGRDGTPGEKGEKGDPGLIGPKGDIGETGVPGAEGPRGFPGIQGRKGEPGEGAYVYRSAFSVGLETYVTIPNMPIRFTKIFYNQQNHYDGSTGKFHCNIPGLYYFAYHITVYMKDVKVSLFKKDKAMLFTYDQYQENNVDQASGSVLLHLEVGDQVWLQVYGEGERNGLYADNDNDSTFTGFLLYHDTN
B2: Full length human adiponectin (hAd), high molecular weight form (natural protein, UniProt Q15848 19-244, looked up)
chain: B1 chain
modifications: detected proline hydroxylations at 71, 76, 95; detected lysine hydroxylations at 33, 65, 68, 77, 101 (glycosylated hydroxylysyl)
notes: human adiponectin; coding region amplified from Human Adipocyte Marathon Ready cDNA; the original signal peptide was replaced by the human CD33 signal peptide and the protein was secreted; also called HMW hAd; HMW adiponectin; source: HMW form isolated; copies: 18
B3: C39S version of full length murine adiponectin (C39S mAd), Q60994 18-247 (natural protein)
chain: T1 chain
modifications: here or on the partner: detected proline hydroxylations at 47, 50, 56, 65, 79; detected lysine hydroxylations at 68, 71, 80, 104; detected proline hydroxylations at 47, 50, 56, 65, 79; detected lysine hydroxylations at 68, 71, 80, 104
B4: C39S version of full length murine adiponectin (C39S mAd) (protein)
chain: T1 chain
B5: Full length murine adiponectin (mAd) (protein)
chain: T1 chain with S22C
B6: Full length murine adiponectin (mAd) (natural protein, UniProt Q60994 18-247, looked up)
chain: T1 chain with S22C
modifications: detected proline hydroxylations at 65, 79; detected lysine hydroxylations at 36, 68, 71, 80, 104
notes: murine adiponectin; coding region amplified from a mouse spleen cDNA library; the original signal peptide was replaced by the human CD33 signal peptide and the protein was secreted; The forward primer begins with catcatcat (three His codons) followed by gcc gaa gat gac gtt (A E D D V); Batch is a mixture of trimer and hexamer
B7: Mouse globular adiponectin with an amino terminal FlagTag (FLAG-mgAd) (domain or fragment, murine, UniProt Q60994 109-247, looked up)
chain: EAAYMYRSAFSVGLETRVTVPNVPIRFTKIFYNQQNHYDGSTGKFYCNIPGLYYFSYHITVYMKDVKVSLFKKDKAVLFTYDQYQEKNVDQASGSVLLHLEVGDQVWLQVYGDGDHNGLYADNVQDSTFTGFLLYHDTN
notes: N233Q to prevent N-glycosylation; the methods mention only N233Q; Total mass printed: 17054 Da; also called FLAG tagged mouse globular adiponectin; source: S. cerevisiae ME1719, supernatant, purified (Q Sepharose FF, Superdex 200)

Tests used:
[1] = not stated; oligomeric form and share of trimer/hexamer/HMW in the purified batch as listed in Table 1; the table does not say whether from analytical SEC (Figure 1A) or AF4-MALS
[2] = biological target: Murine globular adiponectin (mgAd) (murine); test: as above
[3] = biological target: Q15848; test: as above
[4] = biological target: the molecule itself; test: as above
[5] = biological target: the molecule itself; test: AF4-MALS; purified batch; 20 mM Tris-HCl pH 7.4, 100 mM NaCl, 1 mM CaCl2; self-association, size of the oligomer
[6] = biological target: T1, C39S version of full length murine …; test: not stated; oligomeric form and share of trimer/hexamer/HMW in the purified batch as listed in Table 1; the table does not say whether from analytical SEC (Figure 1A) or AF4-MALS; conditions: remark: other sources report otherwise
[7] = biological target: Q60994; test: as above

| Molecule | % hexamer [4] | % trimer [4] | % HMW [7] | also measured |
| --- | --- | --- | --- | --- |
| Murine globular adiponectin (mgAd) | – | – | – | % HMW [1]: 0% |
| Murine globular adiponectin (mgAd) (domain or fragment) | – | – | – | % hexamer [2]: -0%; % trimer [2]: 100% |
| B1 | – | – | – | % HMW [3]: 98% |
| B2 | 2% | 0% | – | stoichiometry N [5]: 18 |
| B3 | – | – | – | % hexamer [6]: -0%; % trimer [6]: 100%; stoichiometry N [6]: 3 |
| B4 | – | – | 0% | – |
| B5 | – | – | 1% | – |
| B6 | 53% | 46% | – | stoichiometry N [4]: 3 and 6 |
| B7 | 15% | 85% | 0% | – |

Reference: article PMC3462199, “Recombinant Adiponectin Does Not Lower Plasma Glucose in Animal Models of Type 2 Diabetes” (PLoS ONE, 2012)
